Experimental data: patent US20260226006A1, “INDOLE COMPOUND, PREPARATION METHOD THEREFOR AND USE THEREOF” (SUZHOU MERNA THERAPEUTICS CO. LTD, priority 2023, published 2026)

Experiments:
[1] = test system: KRT1, KRT10, Loricrin, and Involucrin in HaCat keratinocytes; test: Expression of keratinocyte differentiation markers in HaCat cells, RT-PCR and Western blot (Example 18); format: cell-based, human; details: HBEGF protein alone, 24 hours
Description: 1*10^8 HaCat cells were seeded in culture dishes, into which a recombinant HBEGF protein (Thermo Fisher Scientific, Cat. #100-47-1 mg) was added. The cells were placed in an incubator containing 5% carbon dioxide for culture at 37° C. for 24 hours, into which an HBEGF antibody (Invitrogen, Cat. #406316) was added, or METTL3 siRNA (sh-METTL3, GeneChem) and NAP1L2 siRNA (sh-NAP1L2, GeneChem) were transfected. The cells were placed in an incubator containing 5% carbon dioxide for culture at 37° C. for 24 hours, washed with PBS, and then collected by high-speed centrifugation. An RLT lysis buffer was added to the above collected cells, the mixture was shaken at 4° C. for half an hour and centrifuged to collect the supernatant, and the protein expression amounts of keratinocyte differentiation markers KRT1, KRT10, Loricrin, and Involucrin were measured by Western blot.
Total RNA was extracted using a Trizol reagent (Sigma Aldrich). 1 μg of RNA was reverse-transcribed into cDNA using a cDNA reverse transcription kit (Transgene Biotech, Cat. #AT311-03). 1.25 μL of a primer (with a primer sequence shown in Table 2), 10 μL of an iTag Universal SYBR Green supermix (Bio-Rad, Cat. #172-5125), and an appropriate amount of DEPC ultrapure water were added to formulate 20 μL of a reaction solution to perform an RT-PCR reaction. […]

[2] = test system: HaCaT keratinocytes; test: Inhibition of HBEGF-induced differentiation of HaCaT keratinocytes, marker mRNA by RT-PCR (Example 21); format: cell-based, human; details: 2.5 ng/mL human recombinant HBEGF protein alone, 24 hours
Description: Human HaCaT keratinocytes were cultured in a DMEM culture medium containing 10% fetal bovine serum, 100 U/mL penicillin, and 100 µg/mL streptomycin. The cells were seeded into a 96-well plate at a density of […] and placed in an incubator containing 5% carbon dioxide for culture at 37° C. for 24 hours. An equal volume of DMSO was added into control well 1, a 2.5 ng/mL human recombinant HBEGF protein (Abcam, ab205523) was added into control well 2, and a 2.5 ng/mL human recombinant HBEGF protein and corresponding concentrations of test compounds were added into sample wells. The cells were continuously cultured for 24 hours, washed with PBS, and then collected by high-speed centrifugation. Total RNA was extracted using a Trizol reagent (Sigma Aldrich). 1 μg of RNA was reverse-transcribed into cDNA using a cDNA reverse transcription kit (Transgene Biotech, AT311-03). 1.25 μL of a primer (with a primer sequence shown in Table 2), 10 μL of an iTag Universal SYBR Green supermix (Bio-Rad, 172-S125), and an appropriate amount of DEPC ultrapure water were added to formulate 20 μL of a reaction solution to perform an RT-PCR reaction. Upon completion of the reaction, the reaction solution was subjected to agarose gel electrophoresis to determine the mRNA expression amounts of keratinocyte differentiation markers KRT1, KRT10, Loricrin, and Involucrin.

B1: recombinant HBEGF protein: recombinant HBEGF protein used to induce keratinocyte differentiation (protein, UniProt Q99075 63-148, looked up)
Heparin-binding EGF-like …: DLQEADLDLLRVTLSSKPQALATPNKEEHGKRKKKGKGLGKKRDPCLRKYKDFCIHGECKYVKELRAPSCICHPGYHGERCHGLSL
[1]
  mRNA and protein expression amounts of KRT1, KRT10, Loricrin, and Involucrin: significantly increased
[2]
  mRNA expression amounts of HaCaT differentiation markers KRT1, KRT10, Loricrin, and Involucrin: significantly increased
